# Laboratory results reported in patent publication US20240010720A1 (IOMX THERAPEUTICS, published 2024).
# T1: human IGSF11 (VSIG3) on cells (human, UniProt Q5DX21 23-431)
# T1 sequence: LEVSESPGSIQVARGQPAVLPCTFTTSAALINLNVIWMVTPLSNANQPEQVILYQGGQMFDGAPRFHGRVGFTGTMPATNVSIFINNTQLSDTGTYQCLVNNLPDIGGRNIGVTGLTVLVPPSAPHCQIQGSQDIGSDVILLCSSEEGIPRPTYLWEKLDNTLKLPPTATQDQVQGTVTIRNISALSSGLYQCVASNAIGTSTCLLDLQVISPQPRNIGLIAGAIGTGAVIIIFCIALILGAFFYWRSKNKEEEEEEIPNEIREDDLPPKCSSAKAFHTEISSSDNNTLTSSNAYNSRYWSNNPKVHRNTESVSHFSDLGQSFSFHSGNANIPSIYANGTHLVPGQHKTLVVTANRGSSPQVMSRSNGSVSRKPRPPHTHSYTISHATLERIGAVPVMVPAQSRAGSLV
# T2: His-tagged extracellular domain (ECD) of human IGSF11 (VSIG3) (human, UniProt Q5DX21 23-241)
# T2 construct: partly bought (SinoBiological 13094-H08H); also called IGSF11-HIS; HIS-IGSF11; not shown: HIS6 tag
# T2 sequence: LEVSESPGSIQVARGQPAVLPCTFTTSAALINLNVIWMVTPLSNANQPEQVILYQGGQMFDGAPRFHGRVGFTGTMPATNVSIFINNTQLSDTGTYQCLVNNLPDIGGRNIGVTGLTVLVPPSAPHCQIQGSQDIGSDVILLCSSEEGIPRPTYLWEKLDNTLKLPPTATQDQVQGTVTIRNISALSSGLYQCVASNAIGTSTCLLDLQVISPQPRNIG
# T3: IGSF11 ECD fused to murine-Fc (human; mouse, UniProt Q5DX21 23-241)
# T3 construct: also called Fc-fusion IGSF11 ECD; full-length ECD of IGSF11; not shown: murine Fc
# T3 sequence: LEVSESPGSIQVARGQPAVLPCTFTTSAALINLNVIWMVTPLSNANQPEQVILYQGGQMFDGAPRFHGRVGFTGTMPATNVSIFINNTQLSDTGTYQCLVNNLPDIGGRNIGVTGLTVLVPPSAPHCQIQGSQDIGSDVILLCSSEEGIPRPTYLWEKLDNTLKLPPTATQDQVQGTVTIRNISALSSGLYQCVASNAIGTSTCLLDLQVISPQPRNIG
# T4: recombinant human IGSF11 (VSIG3) extracellular domain (ECD) (human, UniProt Q5DX21 23-241, biotinylated where captured on streptavidin)
# T4 construct: also called biotinylated recombinant ECD-IGSF11; IGSF11 (ECD domain)
# T4 sequence: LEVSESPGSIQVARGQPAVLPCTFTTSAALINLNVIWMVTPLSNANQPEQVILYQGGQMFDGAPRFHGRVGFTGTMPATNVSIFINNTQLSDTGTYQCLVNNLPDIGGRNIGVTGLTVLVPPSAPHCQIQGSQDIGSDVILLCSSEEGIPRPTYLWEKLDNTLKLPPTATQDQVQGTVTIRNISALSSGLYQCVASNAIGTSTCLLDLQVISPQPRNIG
# T5: recombinant cynomolgus monkey IGSF11 extracellular domain (ECD) (cynomolgus monkey, UniProt Q5DX21 23-241 (human entry), biotinylated)
# T5 chain: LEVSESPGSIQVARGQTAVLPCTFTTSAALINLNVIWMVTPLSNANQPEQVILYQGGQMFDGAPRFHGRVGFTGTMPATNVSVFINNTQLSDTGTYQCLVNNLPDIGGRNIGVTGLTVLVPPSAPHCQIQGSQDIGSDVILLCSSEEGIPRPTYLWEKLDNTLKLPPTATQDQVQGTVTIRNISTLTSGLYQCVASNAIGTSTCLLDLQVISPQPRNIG
# Tests used:
# [1] = biological target: T1, human IGSF11 (VSIG3) on cells; assay: FACS, HEK cells expressing IGSF11
# [2] = biological target: T2, His-tagged extracellular domain (ECD) …; assay: ELISA EC50 grade, IgG1
# [3] = biological target: T3, IGSF11 ECD fused to murine-Fc; assay: ELISA, IgG
# [4] = biological target: T4, recombinant human IGSF11 (VSIG3) …; assay: SPR, IgG1
# [5] = biological target: T1, human IGSF11 (VSIG3) on cells; assay: FACS, DMS 273 cells
# [6] = biological target: T1, human IGSF11 (VSIG3) on cells; assay: FACS % positive cells, scFv
# Streptavidin = biological target: T6, Streptavidin (UniProt P22629 37-163, limits assumed); assay: ELISA, scFv
# T6 construct: also called negative antigen; irrelevant antigen
# T6 sequence (P22629 37-163 limits assumed): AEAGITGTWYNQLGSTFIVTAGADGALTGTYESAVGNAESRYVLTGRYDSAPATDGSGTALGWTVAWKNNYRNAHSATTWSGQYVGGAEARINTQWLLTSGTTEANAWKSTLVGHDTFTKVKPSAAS
# [7] = biological target: T1, human IGSF11 (VSIG3) on cells; assay: FACS, IgG1-format antibodies; M579-A2-luc cells (M) treated with scrambled control siRNA (SC)
# [8] = biological target: T1, human IGSF11 (VSIG3) on cells; assay: FACS, IgG1-format antibodies; CL-11 cells (C), a line that does not express IGSF11 (specificity control), scrambled control siRNA (SC)
# [9] = biological target: T1, human IGSF11 (VSIG3) on cells; assay: FACS, IgG1-format antibodies; DMS 273 cells (D) treated with IGSF11 siRNA (KD)
# [10] = biological target: T1, human IGSF11 (VSIG3) on cells; assay: FACS, IgG1-format antibodies; M579-A2-luc cells (M) treated with IGSF11 siRNA (KD)
# [11] = biological target: T1, human IGSF11 (VSIG3) on cells; assay: FACS, IgG1-format antibodies; CL-11 cells (C), a line that does not express IGSF11 (specificity control), IGSF11 siRNA (KD)
# [12] = biological target: T1, human IGSF11 (VSIG3) on cells; assay: FACS, IgG1-format antibodies; DMS 273 cells (D) treated with scrambled control siRNA (SC)
# [13] = biological target: T5, recombinant cynomolgus monkey IGSF11 …; assay: ELISA, Fab
# Experimental: In order to identify IGSF11-specific binding ABPs, monoclonal Fabs expressed from E. coli were generated from the enriched set of anti-IGFS11 antibody-expressing phage. After bacterial lysis, the Fabs were tested for their binding properties and cross-reactivity profile on recombinant ECD-IGSF11 (human, mouse and cynomolgus monkey) by standard ELISA. Briefly, biotinylated recombinant ECD-IGSF11 from human, mouse, or cynomolgus monkey were immobilized at 2 ug/mL on a streptavidin-coated 384-well Maxisorp plate. The surface was blocked with 2% (w/v) skim milk powder in PBST. After three wash cycles with PBST, a bacterial lysate of each of the anti-IGSF11 Fabs in 2% (w/v) skim milk powder was applied to the immobilized IGSF11 and incubated for 1 h. After removing all unbound Fab by 3 wash cycles with PBST, bound Fab antibodies were detected with a goat anti-human Fab antibody conjugated with horseradish peroxidase. After three wash cycles with PBST the ELISA was developed with TMB substrate.
binder,measurement,setting,value
"A-035 (IgG1 format) (antibody, V domains shown, human IgG1 format) VH: QVQLVQSGAEVKKPGASVKVSCKASGYTFTGYYMHWVRQAPGQGLEWMGWINPNSGNTGYAQKFQGRVTMTRNTSISTAYMELSSLRSEDTAVYYCARGRLERGYWYFDLWGRGTLVTVSS VL: NFMLTQPHSVSESPGRTVTISCTRSSGSITSNYVQWYQQRPGSAPTILIYEDKERPSEVPDRFSGSIDISSNSASLTISGLKTEDEADYYCQSYGGTSQGVLFGGGTKVTVL",EC50,[1],> 50 nM
same,EC50,[2],0.02 to 0.05 nM
same,EC50,[3],1 to 20 nM
"A-004 (IgG1 format) (antibody, V domains shown, human IgG1 format) VH: EVQLVESGGGLVKPGGSLRLSCAASGFTFSSYSMNWVRQAPGKGLEWVSSISSSSSYIYYADSVKGRFTISRDNAKNSLYLQMNSLRAEDTAVYYCARGQLLWFGESALIDAFDIWGQGTMVTVSS VL: EIVLTQSPSSLSASVGDRVTITCRASQSISSYLNWYQLKPGKAPKLLIYAASILQSGVPSRFSGSGSGTDFTLTISSLQPEDFAAYYCQQSYSTPRTFGQGTKLEIK",EC50,[2],< 0.02 nM
same,EC50,[3],1 to 20 nM
same,Kd,[4],100 to 250 nM
"A-022 (IgG1 format) (antibody, V domains shown, human IgG1 format) VH: EVQLLESGPGLVKPSQTLSLTCTVSGGSISSGGYYWSWIRQHPGKGLEWIGYIYYSGSTYYNPSLKSRVTISVDTSKNQFSLKLSSVTAADTAVYYCARASRSTDYYFDYWGQGTLVTVSS VL: QPGLTQPPSMSYGLGQTATLTCTGNRNNIGDQGAAWLQQHQGHPPKLLSYRNNNGPSGISERLSASRSGNTASLTISGLQPEDEADYYCSAWDSSLRAWVFGGGTKLTVL",EC50,[5],10 to 50 nM
same,EC50,[1],10 to 50 nM
same,EC50,[2],< 0.02 nM
same,EC50,[3],< 1 nM
"A-013 (IgG1 format) (antibody, V domains shown, human IgG1 format) VH: EVQLVESGGGLIQPGGSLRLSCAASGFTVSSNYMSWVRQAPGKGLEWVSVIYSGGSTYYADSVKGRFTISRDNSKNTLYLQMNSLRAEDTAVYYCARGNPYYYGDLQVNFDYWGQGTLVTVSS VL: QAVVTQEPSLTVSPGGTVTLTCASSTGAVTSAYYPNWFQQKPGQAPRALIYSTSNKHSWTPARFSGSLLGGKAALTLSGVQPEDEADYYCLLYYGGAWVFGGGTKLTVL",EC50,[5],> 50 nM
same,EC50,[1],10 to 50 nM
same,EC50,[2],< 0.02 nM
same,Kd,[4],100 to 250 nM
"A-028 (scFv format) (scFv, V domains shown, scFv) VH: QVQLVQSGAEVKKPGSSVKVSCKASGGTFSSYAISWVRQAPGQGLEWMGGIIPIFGTANYAQKFQGRVTITADESTSTAYMELSSLRSEDTAVYYCARVGVEYQLLWYFDYWGQGTLVTVSS VL: DIQMTQSPSSLSASVGDRVTLTCRTSQTISNYLNWYQQKPGKAPKLLVYAASNLQSWVPSRFSGSGSGTDFTLTISSLQPEDFATYYCQQSYNASFGGGTKVEFK",binding result,[6],binds
same,binding result,Streptavidin,no binding (tested: <0.025 or <0.05 RFU)
"A-007 (IgG1 format) (antibody, V domains shown, human IgG1 format) VH: not shown VL: QSALTQPASVSGSPGQSITIACTGSSSDIGSFSYVSWYQQRPGKAPTLIIYGVNNRPLGVSRRFSGSKSGNTASLSISGLQAEDEADYYCSSYTRRSTVIFGGGTKLTVL",EC50,[5],< 10 nM
same,EC50,[1],< 10 nM
same,EC50,[2],< 0.02 nM
same,percentage binding (FACS heat-map),[7],65.6%
same,percentage binding (FACS heat-map),[8],8.88%
same,percentage binding (FACS heat-map),[9],34.2%
same,percentage binding (FACS heat-map),[10],9.15%
same,percentage binding (FACS heat-map),[11],13.2%
same,percentage binding (FACS heat-map),[12],82.3%
"A-027 (IgG1 format) (antibody, V domains shown, human IgG1 format) VH: QVQLVQSGAEVKKPGSSVKVSCKASGGTFSSYAISWVRQAPGQGLEWMGGIIPIFGTANYAQKFQGRVTITADKSTSTAYMELSSLRSEDTAVYYCARARGSTWGYFDYWGQGTLVTVSS VL: EIVLTQSPASLSLSPGERVTLSCRASQSVSNYLAWYQQKPGQAPRLLIYDASNRATGIPARFSGSGSGTDFTLTISSLEPEDFAVYYCQQRDNWPLTFGGGTKVEIK",EC50,[1],> 50 nM
same,EC50,[2],> 1 nM
same,percentage binding (FACS heat-map),[7],3.32%
same,percentage binding (FACS heat-map),[8],3.08%
same,percentage binding (FACS heat-map),[9],2.63%
same,percentage binding (FACS heat-map),[10],2.5%
same,percentage binding (FACS heat-map),[11],4.75%
same,EC50,[3],1 to 20 nM
same,percentage binding (FACS heat-map),[12],14.3%
"C-006 (Fab format) (Fab, V domains shown, Fab in E. coli lysate) VH: not shown VL: DIQMTQSPSSLSASVGDRVTITCRASQSISSYLNWYQQKPGKAPKLLIYAASSLQSGVPSRFSGSGSGTDFTLTISSLQPEDFATYYCQQSHQSPPITFGQGTKVEIK",A450,[13],< 1
"C-012 (Fab format) (Fab, V domains shown, Fab in E. coli lysate) VH: not shown VL: DIQMTQSPSSLSASVGDRVTITCRASQSISSYLNWYQQKPGKAPKLLIYAASSLQSGVPSRFSGSGSGTDFTLTISSLQPEDFATYYCQQSHQSPPITFGQGTKVEIK",A450,[13],< 1
"A-034 (IgG1 format) (antibody, V domains shown, human IgG1 format) VH: QMQLVQSGGGLVKPGGSLRLSCAASGFTFSSYTMNWVRQAPGKGLEWVSSISSIGTYIYYADSVKGRFTISRDNAKNSLYLQMNSLRAEDTAVYYCARVLLSGSYYGYFDSWGQGTLVTVSS VL: QSVLTQPPSVSGAPGQRVTISCTGSSSNIGAGYDVHWYQQLPGTAPKLFIYGNSNRPSGVPDRFSGSKSGTSASLAITGLQAEDEADYYCQSYDSSLSGYVFGTGTKVTVL",EC50,[2],0.05 to 1 nM
same,Kd,[4],250 to 500 nM
"A-015 (IgG1 format) (antibody, V domains shown, human IgG1 format) VH: not shown VL: QPVLTQSPSASASLGASVKLTCTLSSGHTNYAIAWRQQQPGKAPRYLMLLNSDGSHTRGGGIPDRFSGSSSGAERYLTISSLQSEDEADYYCMIWHNNAWVFGGGTKLAVL",percentage binding (FACS heat-map),[7],1.17%
same,percentage binding (FACS heat-map),[8],1.95%
same,percentage binding (FACS heat-map),[9],1.6%
same,percentage binding (FACS heat-map),[10],1.3%
same,percentage binding (FACS heat-map),[11],2.91%
same,percentage binding (FACS heat-map),[12],5.97%
"A-010 (IgG1 format) (antibody, V domains shown, human IgG1 format) VH: QVQLVQSGAEVKKPGASVKVSCKASGYTFTSYGISWVRQAPGQGLEWMGWISAYNGNTNYAQKLQGRVTMTTDTSTSTAYMELRSLRSDDTAVYYCARVPAWSGQFDYWGQGTLVTVSS VL: QSALTQPASVSGSPGQSITISCTGSSSDVGGYNYVSWYQQYPGKAPKLMIYDVRSRPSGVSNRFSGSKSGNTASLTISGLQAEDEADYYCTSYTSSNTLVIFGGGTKVTVL",EC50,[2],< 0.02 nM
same,EC50,[3],< 1 nM
"A-021 (scFv format) (scFv, V domains shown, scFv) VH: QVQLVQSGAEVKKPGASVKVSCKASGYTFTSYGISWVRQAPGQGLEWMGWISAYNGNTNYAQKLQGRVTMTTDTSTSTAYMELRSLRSDDTAVYYCARVPAWSGQFDYWGQGTLVTVSS VL: QSALTQPASVSGSPGQSITISCTGTSSDVGGYNYVSWYQQHPGKAPKLMIYEVTNRPSGVSDRFSGSKSANTASLTISELQAEDEAVYYCNSYTSGPTYVLFGGGTQLTVL",binding result,[6],binds
same,binding result,Streptavidin,no binding (tested: <0.025 or <0.05 RFU)
